Reference: patent publication US20240117054A1 (DRAGONFLY THERAPEUTICS, published 2024)
Each block holds one binder with its values, some of them ahead of it.

How the values were obtained:
[1] = target: T1, human NKG2D (human, UniProt P26718 78-216, limits assumed); assay: assay not described
T1 sequence (looked up): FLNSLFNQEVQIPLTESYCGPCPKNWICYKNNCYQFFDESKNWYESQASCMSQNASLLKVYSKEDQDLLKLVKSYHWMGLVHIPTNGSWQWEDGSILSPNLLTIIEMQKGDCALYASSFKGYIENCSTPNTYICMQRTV

[2] = target: T2, hFLT3-His fusion protein (human, UniProt P36888 27-541, limits assumed); assay: SPR, purified murine subclone, hFLT3-His, 1:1 binding fit
T2 construct: Soluble recombinant antigen used for immunisation, ELISA, SPR and BLI binning; also called recombinant hFLT3 protein; not shown: His tag
T2 sequence (looked up): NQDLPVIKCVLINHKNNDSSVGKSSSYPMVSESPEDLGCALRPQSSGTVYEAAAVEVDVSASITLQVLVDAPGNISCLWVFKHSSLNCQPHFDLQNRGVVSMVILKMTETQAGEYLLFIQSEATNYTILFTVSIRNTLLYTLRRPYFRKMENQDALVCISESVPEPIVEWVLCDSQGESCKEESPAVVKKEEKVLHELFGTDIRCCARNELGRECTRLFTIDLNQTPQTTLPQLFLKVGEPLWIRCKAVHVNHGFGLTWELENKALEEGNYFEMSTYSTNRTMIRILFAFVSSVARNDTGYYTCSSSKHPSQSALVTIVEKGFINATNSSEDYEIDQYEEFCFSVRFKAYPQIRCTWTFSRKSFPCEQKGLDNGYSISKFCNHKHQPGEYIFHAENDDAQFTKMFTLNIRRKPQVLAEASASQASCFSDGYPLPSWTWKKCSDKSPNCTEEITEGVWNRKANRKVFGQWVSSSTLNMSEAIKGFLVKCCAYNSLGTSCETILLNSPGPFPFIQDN

binding result [1]: no binding
B1: F3′-1158 dead-2D (bispecific antibody, human IgG1, kappa)
chain: DIVMTQSPDSLAVSLGERATINCRASESVDTYGSSFVHWYQQKPGQPPKLLIYLASNLESGVPDRFSGSGSGTDFTLTISSLQAEDVAVYYCQQNNEEPWTFGCGTKVEIKGGGGSGGGGSGGGGSGGGGSQVQLVQSGAEVKKPGASVKVSCKASGYTFTRYVMHWVRQAPGQCLEWMGFINPYNDDTKYNEKFKGRVTITRDTSASTAYMELSSLRSEDTAVYYCARWRQLGSLDSWGQGTTVTVSSGSDKTHTCPPCPAPELLGGPSVFLFPPKPKDTLMISRTPEVTCVVVDVSHEDPEVKFNWYVDGVEVHNAKTKPREEQYNSTYRVVSVLTVLHQDWLNGKEYKCKVSNKALPAPIEKTISKAKGQPREPRVYTLPPCRDELTKNQVSLTCLVKGFYPSDIAVEWESNGQPENNYKTTPPVLVSDGSFTLYSKLTVDKSRWQQGNVFSCSVMHEALHNHYTQKSLSLSPG
heavy: EVQLVESGGGLVKPGGSLRLSCAASGFTFSSYSMNWVRQAPGKGLEWVSSISSSSSYIYYADSVKGRFTISRDNAKNSLYLQMNSLRAEDTAVYYCARGAPIGAAAGWFDPWGQGTLVTVSSASTKGPSVFPLAPSSKSTSGGTAALGCLVKDYFPEPVTVSWNSGALTSGVHTFPAVLQSSGLYSLSSVVTVPSSSLGTQTYICNVNHKPSNTKVDKKVEPKSCDKTHTCPPCPAPELLGGPSVFLFPPKPKDTLMISRTPEVTCVVVDVSHEDPEVKFNWYVDGVEVHNAKTKPREEQYNSTYRVVSVLTVLHQDWLNGKEYKCKVSNKALPAPIEKTISKAKGQPREPQVCTLPPSRDELTENQVSLTCLVKGFYPSDIAVEWESNGQPENNYKTTPPVLDSDGSFFLYSWLTVDKSRWQQGNVFSCSVMHEALHNHYTQKSLSLSPG
light: DIQMTQSPSTLSASVGDRVTITCRASNSISSWLAWYQQKPGKAPKLLIYEASSTKSGVPSRFSGSGSGTEFTLTISSLQPDDFATYYCQQYDDLPTFGGGTKVEIKRTVAAPSVFIFPPSDEQLKSGTASVVCLLNNFYPREAKVQWKVDNALQSGNSQESVTEQDSKDSTYSLSSTLTLSKADYEKHKVYACEVTHQGLSSPVTKSFNRGEC
notes: also called first variant

binding result [2]: binds
B2: 14H8.E7 (antibody, V domains shown)
VH: EVQLQESGAELVKPGASVKLSCKASGYTFTNYWINWLKQRPGQGLEWIGNIYPGSTIINYNEKFKNKATLTVDTSSSTAYMQLSSLTSDDSAVYYCARRVVYLYFDSWGQGTTLTVSS
VL: QIVLTQSPAIMSASPGEKVTMTCSASSSVSYMHWYQQKSGTSPKRWIFDTSKLASGVPVRFSGSGSGTSYSLTITNMETEDAATYYCQQWSSKSPTFGGGTKLEIK
